Data published in patent publication US20070036796A1.

Target: human CCR5 (human) (UniProt P51681)
Test: cell-based or functional assay

Sequence of human CCR5 (human) (P51681 whole entry): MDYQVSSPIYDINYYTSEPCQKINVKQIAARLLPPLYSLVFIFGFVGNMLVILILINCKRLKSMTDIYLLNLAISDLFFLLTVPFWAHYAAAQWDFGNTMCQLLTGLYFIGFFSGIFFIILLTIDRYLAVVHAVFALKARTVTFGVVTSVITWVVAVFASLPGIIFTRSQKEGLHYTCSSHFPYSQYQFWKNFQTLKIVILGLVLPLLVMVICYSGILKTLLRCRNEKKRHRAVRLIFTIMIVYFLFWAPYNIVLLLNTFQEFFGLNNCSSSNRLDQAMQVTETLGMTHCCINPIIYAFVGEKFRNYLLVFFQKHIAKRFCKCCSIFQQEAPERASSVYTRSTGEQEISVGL

## Pharmingen 2D7 (CD 195; Cat. Nr. 555990) (antibody)
  IC50, PhenoSenseHIV assay (ViroLogic) using JRCSF strain: 1.4 µg/ml
  IC50, inhibition of HIV growth in human PBMC, JRCSF (p24 ELISA): 0.271 µg/mL
  IC50, inhibition of HIV growth in human PBMC, Nl-Bal (p24 ELISA): 0.076 µg/mL
